Data published in the supplement of paper PMC7877785.
± gives the uncertainty stated by the source.

Assay: self-splicing fitness, log relative to wild type (ln ratio); higher = more splicing; Tetrahymena group I intron in knt gene, E. coli kanamycin selection, DiMSum; sequences stand for … in CUCUCU…GGAGGGAAAAGUUAUCAGGCAUGCACCUGGUAGCUAGUCUUUAAACCAAUAGAUUGCAUCGGUUUAAAAGGCAAGACCGUCAAAUUGCGGGAAAGGGGUCAACAGCCGUUCAGUACCAAGUCUCAGGGGAAACUUUGAGAUGGCCUUGCAAAGGGUAUGGUAAUAAGCUGACGGACAUGGUCCUAACCACGCAGCCAAGUCCUAAGUCAACAGAUCUUCUGUUGAUAUGGAUGCAGUUCACAGACUAAAUGUCGGUCGGGGAAGAUGUAUUCUUCUCAUAAGAUAUAGUCGGACCUCUCCUUAAUGGGAGCUAGCGGAUGAAGUGAUGCAACACUGGAGCCGCUGGGAACUAAUUUGUAUGCGAAAGUAUAUUGAUUAGUUUUGGAGUACUCGUGGUCG
How it was run: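 Library with all eight P1ex-region intron nucleotides randomised, intron inside the knt kanamycin-resistance gene on pET-22b(+), in E. coli BL21(DE3). Cells grew overnight at 37°C or 30°C on LB agar with or without 25 μg/mL kanamycin (plus 100 μg/mL carbenicillin, 50 μM IPTG, 0.2% rhamnose), in six replicate transformations. Pooled colonies were amplicon-sequenced on Illumina HiSeq 2500. DiMSum fitness is the error-weighted combination of wild-type-normalised replicate fold changes, kanamycin versus none.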

Row | Sequence | self-splicing fitness (ln) (30 °C) | self-splicing fitness (ln) (37 °C)
1 | CUAGAGCAAUAUUACGCGUA | -3.78 ± 0.2 | -2.97 ± 0.26
2 | CUAGAGCAAUAUUACGCUGA | -3.92 ± 0.23 | -2.25 ± 0.23
3 | CUAGAGCAAUAUUACGGAAU | -3.15 ± 0.27 | -2.82 ± 0.38
4 | CUAGAGCAAUAUUACGGCAA | -3.09 ± 0.22 | -2.96 ± 0.34
5 | CUAGAGCAAUAUUACGGCUC | -2.94 ± 0.25 | –
6 | CUAGAGCAAUAUUACGGGGC | -3.9 ± 0.33 | -2.31 ± 0.3
7 | CUAGAGCAAUAUUACGUAAU | -3.79 ± 0.2 | -2.22 ± 0.23
8 | CUAGAGCAAUAUUACGUGCU | -3.54 ± 0.28 | -0.493 ± 0.15
9 | CUAGAGCAAUAUUACGUGUC | -4.02 ± 0.3 | -2.88 ± 0.26
10 | CUAGAGCAAUAUUACGUUAU | -3.29 ± 0.16 | -2.3 ± 0.23
11 | CUAUAGCAAUAUUACGAAAG | -1.84 ± 0.1 | -1.01 ± 0.12
12 | CUAUAGCAAUAUUACGAACA | -2.76 ± 0.19 | -2.49 ± 0.2
13 | CUAUAGCAAUAUUACGAAGA | -3.01 ± 0.25 | –
14 | CUAUAGCAAUAUUACGAAGU | -3.32 ± 0.25 | -1.93 ± 0.28
15 | CUAUAGCAAUAUUACGAGUA | -2.86 ± 0.41 | -1.62 ± 0.23
16 | CUAUAGCAAUAUUACGAUGC | -4.97 ± 0.38 | -2.41 ± 0.2
17 | CUAUAGCAAUAUUACGCACG | -0.606 ± 0.14 | -0.255 ± 0.23
18 | CUAUAGCAAUAUUACGCCGU | -3.51 ± 0.29 | -2.6 ± 0.44
19 | CUAUAGCAAUAUUACGCUGA | -2.84 ± 0.24 | -2.32 ± 0.29
20 | CUAUAGCAAUAUUACGGCCU | -2.9 ± 0.38 | -1.78 ± 0.38

Row | Sequence | self-splicing fitness (ln) (30 °C) | self-splicing fitness (ln) (37 °C)
21 | CUAUAGCAAUAUUACGGGCG | -0.345 ± 0.084 | -0.342 ± 0.098
22 | CUAUAGCAAUAUUACGGUGU | -4.24 ± 0.27 | -1.93 ± 0.22
23 | CUAUAGCAAUAUUACGUAUC | -5.21 ± 0.32 | -2.48 ± 0.14
24 | CUAUAGCAAUAUUACGUCAU | -2.83 ± 0.33 | -3.05 ± 0.24
25 | CUAUAGCAAUAUUACGUCGG | -1.97 ± 0.2 | -1.33 ± 0.2
26 | CUAUAGCAAUAUUACGUCUU | -4.3 ± 0.32 | -2.76 ± 0.23
27 | CUAUAGCAAUAUUACGUGCC | -2.54 ± 0.32 | –
28 | CUAUAGCAAUAUUACGUGUG | -1.04 ± 0.079 | -0.474 ± 0.096
29 | CUAUAGCAAUAUUACGUUGU | -3.77 ± 0.19 | -3.85 ± 0.33
30 | CUCAAGCAAUAUUACGAACA | -3.45 ± 0.44 | -0.994 ± 0.31
31 | CUCAAGCAAUAUUACGACGA | -3.03 ± 0.23 | -1.35 ± 0.14
32 | CUCAAGCAAUAUUACGAGGC | -3.51 ± 0.3 | -2.65 ± 0.27
33 | CUCAAGCAAUAUUACGAGUC | -3.49 ± 0.21 | -3.23 ± 0.47
34 | CUCAAGCAAUAUUACGCCAA | -3.55 ± 0.33 | -2.37 ± 0.31
35 | CUCAAGCAAUAUUACGCCUA | -2.82 ± 0.27 | -2.16 ± 0.28
36 | CUCAAGCAAUAUUACGCGAA | – | -1.79 ± 0.22
37 | CUCAAGCAAUAUUACGCGGA | -3.12 ± 0.25 | -4.56 ± 0.31
38 | CUCAAGCAAUAUUACGGAAU | -3.95 ± 0.26 | -2.67 ± 0.22
39 | CUCAAGCAAUAUUACGGACU | -2.42 ± 0.15 | -1.36 ± 0.2
